System: C. albicans 3153A
Experiment: Passive transfer of mAbs or mAb cocktails i.p. before lethal i.v. challenge, mouse model of human disseminated candidiasis
Type: in vivo, Candida albicans
Details: for Protection against C. albicans / Protection against C. albicans (grade word): Table 6, single mAb 0.5 ml i.p. 4 h before i.v. 5×10^5 C. albicans 3153A, BALB/c mice; for Protection against Candida spp in mouse model: Against C. albicans / Protection against Candida spp in mouse model: Against C. albicans (grade word): Table 9; for Protection of adsorbed mAb / Protection / Protection (grade word): Table 15; for Protection of adsorbed mAb: mAb removed by absorption with Candida cells before transfer; for Protection / Protection (grade word): single universal peptide-specific mAb, C. albicans
Description: Passive transfer of MAbs by intraperitoneal (i.p.) route. The preventive effect of peptide-specific mAbs listed in Table 3 and Table 4 in naïve mice was examined by passive transfer experiments. […] For testing, mice received 0.5 ml of each mAb or 1 ml of two mAbs in combination (0.5 ml of each) intraperitoneally. […] The negative control materials tested in mice were single mAb or DPBS. Control mice received 0.5 ml of the DPBS diluents or single mAb treatment. For each condition, 6- to 8-week-old female BALB/c mice (NCI) were given 0.5 ml of test mAb, or 1 ml two mAb cocktails or control materials intraperitoneally, followed 4 h later by 0.1 ml intravenously of defined lethal dose of yeast cells per milliliter of DPBS. Mice were divided into groups with five mice each and three independent experiments were carried out. In some experiments, mice were given the same dose of mAbs or control materials on every other day post-challenge for two weeks, as compared to the protective efficacy of mAb in combinations. All mice were sacrificed on day 50. For animal groups that were challenged non-albicans candida species, determined optimal challenge doses were applied for each candida strain.
The hybridoma clones that produce the universal peptide specific mAbs listed above were generated from mice vaccinated with peptide-pulsed dendritic cell (DC) preparation as described previously (6). The isotype of mAb was determined with a Mouse Monoclonal Antibody Isotyping Kit (Pierce, USA). […] In detail, BALB/c mice were given an i.p dose of each mAb four hours before hematogenous challenged with a lethal dose of C. albicans3153A cells. […] Importantly, passive protection was prevented by removal of the mAbs by absorption with Candida cells before transfer, which provided strong additional evidence for the protection being due to the mAb.
The three cell wall proteins were selected because of expression during human candidiasis and cell wall association, and included fructose-bisphosphate aldolase (Fba); methyltetrahydropteroyltriglutamate-homocysteine methyltransferase (Met6); hyphal wall protein-1 (Hwp1). The hybridoma clones listed at Table 5, which produce the peptide specific mAbs, were generated from mice vaccinated with peptide-pulsed dendritic cell (DC) preparation as described previously (6). The isotype of mAb was determined with a Mouse Monoclonal Antibody Isotyping Kit (Pierce, USA). […] Importantly, passive protection was prevented by removal of the mAbs by absorption with Candida cells before transfer, which provided strong additional evidence for the protection being due to the mAb).
The preventive effect of each universal peptide-specific mAb was examined by passive transfer experiments. […] For testing, 5 mice of each tested group received 0.5 ml of each mAb intraperitoneally. The negative control materials tested in mice were mAbs absorbed with C. albicans yeast cells (3153A) and DPBS. Control mice received 0.5 ml of the DPBS diluents or adsorbed mAb solution. For each condition, 6- to 8-week-old female BALB/c mice (NCI) were given 0.5 ml of test mAb, or control materials intraperitoneally, followed 4 h later by 0.1 ml intravenously of a suspension containing lethal dose of Candida cells per milliliter of DPBS. Mice were divided into groups with five mice each and three independent experiments were carried out. We have developed neutropenic murine models of disseminated infection by C. glabrata, C. tropicalis and C. parapsilosis. To induce neutropenia, naïve mice received a 200 mg/kg dose of cyclophosphamide (CY) by i.p. on day −3. Prolonged neutropenia were maintained for 30-50 days by giving each animal a 150 mg/kg dose of CY by i.p. every 10 days after infection.

B1: 1D4H5: IgG1 mAb of hybridoma 1D4H5, specific for GPV-M1; VH SEQ ID NO: 64, VL SEQ ID NO: 66 (antibody, V domains shown)
VH: MYLGLNCVFIVFLLKGVQSEVKLEESGGGLVQPGGSMKLSCVASGFTFSNYWMNWVRQSPEKGLEWVAEIRLKSNNYATHYAESVKGRFTISSDDSKSSVYLQMNNLRAEDTGIYYCSTGNYWGQGTTLTVSS
VL: MDFQMQIISLLLISVTVIVSNGEIVLTQSPTTMAASPGEKITITCSASSTISSNYLHWYQQKPGFSPKLLIYRTSNLASGVPARFSGSGSGTSYSLTIGTMEAEDVATYYCQQGSTISRTFGSGTKLEIK
Protection against C. albicans: (70-80%)
Protection against C. albicans (grade word): High
Protection against Candida spp in mouse model: Against C. albicans: (70-80%)
Protection against Candida spp in mouse model: Against C. albicans (grade word): High
Protection of adsorbed mAb: None
Protection: (70-80%)
Protection (grade word): High

B2: 10E7E2: IgG1 mAb of hybridoma 10E7E2, specific for GPV-P3; VH SEQ ID NO: 72, VL SEQ ID NO: 74 (antibody, V domains shown)
VH: QVQLKQSGPGLVQPSQSLSITCTVSGFSLTSYGVHWVRQSPGKGLEWLGVIWSGGTTDYNAAFISRLSISKDNSKSQVFFKMNSLQANDTAIYYCARGGHRGFAYWGQGTLVTVSA
VL: DIVMTQSHKFMSTSVGDRVSITCKASQDVGTAVAWYQQKPGQSPKLLIYWASTRHTGVPDRFTGSGSGTDFTLTISNVQSEDLADYFCQQYSSYPLTFGAGTKLELK
Protection against C. albicans: (80-100%)
Protection against C. albicans (grade word): High
Protection against Candida spp in mouse model: Against C. albicans: (80-100%
Protection against Candida spp in mouse model: Against C. albicans (grade word): High
Protection of adsorbed mAb: None
Protection: (80-100%)
Protection (grade word): High

— patent US11707511B2, “Vaccine compositions and methods of using the same” (The Board of Supervisors of Louisiana State University and …, priority 2017, dated 2023)
